Experimental data reported in patent US20240358731A1, “SUMO PATHWAY AS AN OXYGEN SENSOR RELEVANT TO THE PATHOPHYSIOLOGY OF PULMONARY ARTERY HYPERTENSION AND CARDIAC ARRHYTHMIA” (Northeastern University, priority 2023, published 2024).
Several values for one entry are separate records, joined by “and”; a condition that tells them apart may be missing. Equal entries are not always repeated. Blank lines part the entries; values can stand above or below the molecule they belong to.

Key:
[1] = target: T1, Kir2.3 (Homo sapiens, UniProt P48050); assay: Two-electrode voltage-clamp of Kir2.3 currents in Xenopus oocytes; format: cell-based; conditions: co-expression
T1 construct: expressed in transfected cells; host or cells: Xenopus oocytes
T1 sequence (P48050 1-445): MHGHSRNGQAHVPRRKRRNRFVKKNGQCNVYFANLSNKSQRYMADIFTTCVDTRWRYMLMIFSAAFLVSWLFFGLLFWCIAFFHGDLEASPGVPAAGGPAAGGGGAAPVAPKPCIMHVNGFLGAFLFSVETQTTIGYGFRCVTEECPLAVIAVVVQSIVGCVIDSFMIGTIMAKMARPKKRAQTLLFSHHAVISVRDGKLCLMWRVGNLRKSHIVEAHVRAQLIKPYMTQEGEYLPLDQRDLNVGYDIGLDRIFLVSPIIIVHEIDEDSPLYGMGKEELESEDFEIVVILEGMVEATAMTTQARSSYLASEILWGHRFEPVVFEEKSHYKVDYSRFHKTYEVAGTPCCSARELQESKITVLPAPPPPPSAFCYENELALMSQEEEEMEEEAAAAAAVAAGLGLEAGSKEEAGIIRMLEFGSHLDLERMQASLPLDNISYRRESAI
From the text: FIG. 5A discloses SEQ ID NOS 6-9, respectively, in order of appearance. […] SENP1 increases the current. […] SUMO sensitivity is transferred to Kir2.3 when the site in Kir2.1 is recreated by mutagenesis (Kir2.3-N25D).
Co-expressed SUMO decreases Kir2.4 currents in Xenopus oocytes. Using the SUMOplot algorithm to assess potential SUMOylation sites based on the canonical motif ψ-K-X-E/D, we identified the high probability SUMO site V-K54-K-D (SEQ ID NO: 4) in the N-terminal sequence of Kir2.4. SUMO covalently modifies Kir2.4 at K54 (FIG. 5) and tested the idea using two-electrode voltage-clamp (TEVC), a sensitive assay to study the regulation of Kir channels. Kir2.4 currents, assessed at −80 mV in a high K^+ (96 mM) bath solution, decreased in a dose-dependent manner with co-expression of SUMO1 (FIG. 5). Co-injection of 5 ng of human SUMO1 RNA decreased Kir2.4 currents by ˜50%. In contrast, expression of SENP1 increased Kir2.4 by ˜50%. […] The analogous sequence in Kir2.2 and Kir2.3 is V-K-K-N(SEQ ID NO: 5), which lacks the terminal aspartic acid, reduced the probability of SUMOylation from 0.93 to 0.31. Consistent with this, Kir2.3 currents were insensitive to SUMO1 and SENP1. […] This last result is consistent with a protein-protein interaction between the channel and SUMO1.

[2] = target: T2, Kir2.4 (Homo sapiens, UniProt Q9UNX9); assay: Whole-cell patch-clamp of Kir2.4 in HEK293 cells with SUMO1 or SENP1 in the recording pipette; format: cell-based; set-up: expressed in transfected cells
T2 sequence (Q9UNX9 1-436): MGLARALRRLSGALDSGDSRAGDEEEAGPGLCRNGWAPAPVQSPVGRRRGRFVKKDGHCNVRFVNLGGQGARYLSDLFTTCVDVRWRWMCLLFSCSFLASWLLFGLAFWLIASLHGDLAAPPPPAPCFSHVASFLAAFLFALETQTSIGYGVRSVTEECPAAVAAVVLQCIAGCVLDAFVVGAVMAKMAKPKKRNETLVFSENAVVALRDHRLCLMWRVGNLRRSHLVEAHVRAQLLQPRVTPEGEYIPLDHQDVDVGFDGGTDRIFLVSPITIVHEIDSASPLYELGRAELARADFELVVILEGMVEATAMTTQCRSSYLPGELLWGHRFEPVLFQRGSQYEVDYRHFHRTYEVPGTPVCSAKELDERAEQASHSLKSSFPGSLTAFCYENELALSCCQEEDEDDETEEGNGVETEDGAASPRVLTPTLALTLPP
Description: Currents were measured at −80 mV in 140 mM external K+.
Similarly, currents were no longer enhanced by SENP1.
SUMOylation regulates Kir2.4 channels in mammalian cells. Next, we tested if SUMO could regulate Kir2.4 channels in mammalian cells. Kir2.4 channels were transiently expressed in HEK293 cells and studied in whole-cell mode with 140 mM bath [K]^+, using a ramp protocol from −80 to +80 mV. Purified SUMO1 or SENP1 peptide were introduced via the recording pipette. At 1 nM, SUMO1, but not heat-denatured SUMO1, inhibited Kir2.4 currents by ˜40 and 60%, respectively, within one-minute of breakthrough. In contrast, 1 nM SENP1 increased the current by ˜50% (FIG. 7).
The PIP2-dependence of SUMO-regulation. Using the 5-ptaseOCRL system, we depleted PIP2 in HEK293 cells expressing Kir2.4 and studied currents with 1 nM SUMO1, or SENP1 in the recording pipette. When currents were recorded after 5-min activation of the optogenetic probe, 5-ptaseOCRL, the inhibitory effect of 1 nM SUMO1 on Kir2.4 was reduced from ˜40% to ˜7% (FIG. 9). Current augmentation observed with SENP1 in the pipette was reduced from […] to ˜6%. These preliminary data support the conclusion that SUMO-regulation of Kir2.4 channels is PIP2-dependent.

sensitivity of Kir2.3 currents [1]: insensitive | inhibition of Kir2.4 currents after PIP2 depletion ([2]; 1 nM SUMO1, after 5-min activation of 5-ptaseOCRL): ~7% | inhibition of Kir2.4 currents ([2]; 1 nM in pipette, 140 mM bath K+, within one-minute of breakthrough): ~40% and ~60%
Molecule: SUMO1: purified SUMO1 (small ubiquitin-related modifier) protein introduced via the recording pipette or co-expressed

sensitivity of Kir2.3 currents [1]: insensitive | increase of Kir2.4 current ([2]; 1 nM SENP1 in pipette): ~50% and ~40% | Kir2.4 current augmentation after PIP2 depletion ([2]; 1 nM SENP1 in pipette, after 5-min activation of 5-ptaseOCRL): ~6%
B1: SENP1: purified deSUMOylating enzyme (SUMO specific protease) introduced via the recording pipette or expressed (protein, UniProt Q9P0U3 1-644, looked up)
Sentrin-specific protease 1: MDDIADRMRMDAGEVTLVNHNSVFKTHLLPQTGFPEDQLSLSDQQILSSRQGHLDRSFTCSTRSAAYNPSYYSDNPSSDSFLGSGDLRTFGQSANGQWRNSTPSSSSSLQKSRNSRSLYLETRKTSSGLSNSFAGKSNHHCHVSAYEKSFPIKPVPSPSWSGSCRRSLLSPKKTQRRHVSTAEETVQEEEREIYRQLLQMVTGKQFTIAKPTTHFPLHLSRCLSSSKNTLKDSLFKNGNSCASQIIGSDTSSSGSASILTNQEQLSHSVYSLSSYTPDVAFGSKDSGTLHHPHHHHSVPHQPDNLAASNTQSEGSDSVILLKVKDSQTPTPSSTFFQAELWIKELTSVYDSRARERLRQIEEQKALALQLQNQRLQEREHSVHDSVELHLRVPLEKEIPVTVVQETQKKGHKLTDSEDEFPEITEEMEKEIKNVFRNGNQDEVLSEAFRLTITRKDIQTLNHLNWLNDEIINFYMNMLMERSKEKGLPSVHAFNTFFFTKLKTAGYQAVKRWTKKVDVFSVDILLVPIHLGVHWCLAVVDFRKKNITYYDSMGGINNEACRILLQYLKQESIDKKRKEFDTNGWQLFSKKSQEIPQQMNGSDCGMFACKYADCITKDRPINFTQQHMPYFRKRMVWEILHRKLL
